These results are taken from patent US20240391984A1.

Assay [1] concerns the target polyclonal IgG (Gammanorm, Octapharma, Sweden). The assay is described as follows: SPR (Biacore 8K+), variant amine-coupled to CM5, Gammanorm as analyte, 1:1 kinetic fit.
For assay [2] the target is unchanged. The assay is described as follows: SPR (Biacore 8K+), variant amine-coupled to CM5, Gammanorm as analyte, steady state fit. On the technique in general: Surface plasmon resonance follows binding to a sensor surface in real time, without labels.
Assay [3] shares this target. The assay is described as follows: SPR (Biacore 8K+), 1:1 kinetic fit; summary table, differs from Table 10.
For assay [4] the target is unchanged. The assay can be described thus: SPR (Biacore 8K+), steady state fit; summary table, differs from Table 10.
Assay [5] has the same target. The assay is described as follows: SPR (Biacore 8K+), variant amine-coupled to CM5, Gammanorm as analyte, 1:1 kinetic fit. The source holds these as a separate data set.
The target is the same in assay [6]. The assay is described as follows: SPR (Biacore 8K+), variant amine-coupled to CM5, Gammanorm as analyte, steady state fit. The source holds these as a separate data set.

B1: pAM261 (Protein L C4 domain; N10H, N45H, N60Y) (designed binder)
chain: PKEEVTIKVHLIFADGKTQTAEFKGTFEEATAEAYRYADLLAKVHGEYTADLEDGGYTIYIKFAGKEQPGENPG
As usually defined, the Kd is the equilibrium constant for the complex coming apart. A high value points to weaker binding. In the case of B1, the values for the Kd in assay [1] and in assay [2] were 12 nM and 43 nM, respectively.

B2: pAM258 (Protein L C2b domain; N10H, N45H, N60Y) (designed binder)
chain: PKEEVTIKVHLIFADGKTQTAEFKGTFEEATAKAYAYADLLAKEHGEYTADLEDGGYTIYIKFAGKETPETPEE
Regarding B2, the dissociation constant (Kd) is 17 nM in assay [1] and 45 nM in assay [2].

B3: pAM247 (Protein L C4 domain; N10H, N45H, N60Q) (designed binder)
chain: PKEEVTIKVHLIFADGKTQTAEFKGTFEEATAEAYRYADLLAKVHGEYTADLEDGGYTIQIKFAGKEQPGENPG
On to B3, for which the Kd in assay [1] was determined as 9 nM; in assay [2] it was 38 nM.

B4: pAM246 (Protein L C3b domain; N10H, N45H, N60Q) (designed binder)
chain: PKEEVTIKVHLIFADGKIQTAEFKGTFEEATAKAYAYADLLAKEHGEYTADLEDGGYTIQIKFAGKETPETPEE
Regarding B4, the dissociation constant Kd in assay [3] came to 15 nM; in assay [4], 47 nM; in assay [1] it was 17 nM; in assay [2], 49 nM.

B5: pAM257 (Protein L C2 domain; H, H, Y at positions 10, 45, 60) (designed binder)
chain: PKEEVTIKVHLIFADGKTQTAEFKGTFEEATAKAYAYADLLAKEHGEYTADLEDGGNTIYIKFAGKETPETPEE
On to B5, for which the dissociation constant Kd in assay [1] amounted to 47 nM; in assay [2], 98 nM.

B6: pAM259 (Protein L C3 domain; H, H, Y at positions 10, 45, 60) (designed binder)
chain: PKEEVTIKVHLIFADGKIQTAEFKGTFEEATAKAYAYANLLAKEHGEYTADLEDGGNTIYIKFAGKETPETPEE
In the case of B6, the Kd in assay [1] worked out at 55 nM; in assay [2], 120 nM.

B7: pAM244 (Protein L C2b domain; N10H, N45H, N60Q) (designed binder)
chain: PKEEVTIKVHLIFADGKTQTAEFKGTFEEATAKAYAYADLLAKEHGEYTADLEDGGYTIQIKFAGKETPETPEE
For B7, the dissociation constant (Kd) was found to be 18 nM in assay [1] and 50 nM in assay [2].

B8: pAM260 (Protein L C3b domain; N10H, N45H, N60Y) (designed binder)
chain: PKEEVTIKVHLIFADGKIQTAEFKGTFEEATAKAYAYADLLAKEHGEYTADLEDGGYTIYIKFAGKETPETPEE
In the case of B8, the values for the dissociation constant Kd in assay [1] and in assay [2] were 18 nM and 51 nM, respectively.

B9: pAM243 (Protein L C2 domain; H, H, Q at positions 10, 45, 60) (designed binder)
chain: PKEEVTIKVHLIFADGKTQTAEFKGTFEEATAKAYAYADLLAKEHGEYTADLEDGGNTIQIKFAGKETPETPEE
As to B9, the figures for the Kd in assay [1] and in assay [2] were 39 nM and 83 nM, respectively.

B10: pAM240 (Protein L B5b domain; H, H, Q at positions 10, 45, 60) (designed binder)
chain: KEQVTIKEHIYFEDGTVQTATFKGTFAEATAEAYRYADLLSKEHGKYTADLEDGGYTIQIRFAGKEEPEE
For B10, the values for the Kd in assay [1] and in assay [2] were 15 nM and 79 nM, respectively.

B11: pAM254 (Protein L B5b domain; H, H, Y at positions 10, 45, 60) (designed binder)
chain: KEQVTIKEHIYFEDGTVQTATFKGTFAEATAEAYRYADLLSKEHGKYTADLEDGGYTIYIRFAGKEEPEE
As for B11, the Kd was determined as 7 nM in assay [1] and 41 nM in assay [2].

B12: pAM241 (Protein L C1 domain; H, H, Q at positions 10, 45, 60) (designed binder)
chain: PEEEVTIKAHLIFADGSTQNAEFKGTFAKAVSDAYAYADALKKDHGEYTVDVADKGLTLQIKFAGKKEKPEE
For the molecule B12, the dissociation constant (Kd) came out at 87 nM in assay [1] and 187 nM in assay [2].

B13: pAM255 (Protein L C1 domain; H, H, Y at positions 10, 45, 60) (designed binder)
chain: PEEEVTIKAHLIFADGSTQNAEFKGTFAKAVSDAYAYADALKKDHGEYTVDVADKGLTLYIKFAGKKEKPEE
Consider B13, for which the equilibrium dissociation constant (Kd) worked out at 146 nM in assay [1] and 324 nM in assay [2].

B14: pAM262 (D1 domain; N10H, N45H, N60Y) (designed binder)
chain: PKEEVTIKAHLIFADGKTQTAEFKGTFEEATAEAYRYADLLAKVHGEYTADLEDGGYTIYIKFAGKEQPGEN
B14: the Kd in assay [1] came to 11 nM; in assay [2], 48 nM.

B15: pAM248 (D1 domain; N10H, N45H, N60Q) (designed binder)
chain: PKEEVTIKAHLIFADGKTQTAEFKGTFEEATAEAYRYADLLAKVHGEYTADLEDGGYTIQIKFAGKEQPGEN
On to B15, for which the Kd turned out to be 16 nM in assay [1] and 56 nM in assay [2].

B16: pAM249 (Protein L B1 domain; N10H, N45H, N60Y) (designed binder)
chain: SEEEVTIKAHLIFANGSTQTAEFKGTFEKATSEAYAYADTLKKDHGEYTVDVADKGYTLYIKFAGKEKTPEE
With B16, the values for the equilibrium dissociation constant (Kd) in assay [1] and in assay [2] were 29 nM and 79 nM, respectively.

B17: pAM235 (Protein L B1 domain; N10H, N45H, N60Q) (designed binder)
chain: SEEEVTIKAHLIFANGSTQTAEFKGTFEKATSEAYAYADTLKKDHGEYTVDVADKGYTLQIKFAGKEKTPEE
With B17, the dissociation constant (Kd) amounted to 42 nM in assay [1] and 101 nM in assay [2].

B18: pAM253 (Protein L B4 domain; N10H, N45H, N60Y) (designed binder)
chain: PKEEVTIKAHLIYADGKTQTAEFKGTFAEATAEAYRYADLLAKEHGKYTADLEDGGYTIYIRFAGKKVDEKPEE
Regarding B18, the dissociation constant (Kd) in assay [1] is 14 nM; in assay [2] it was 54 nM.

B19: pAM239 (Protein L B4 domain; N10H, N45H, N60Q) (designed binder)
chain: PKEEVTIKAHLIYADGKTQTAEFKGTFAEATAEAYRYADLLAKEHGKYTADLEDGGYTIQIRFAGKKVDEKPEE
For the molecule B19, the values for the Kd in assay [1] and in assay [2] were 17 nM and 60 nM, respectively.

B20: pAM114 (wt B3 domain of Protein L) (protein)
chain: PKEEVTIKANLIYADGKTQTAEFKGTFEEATAEAYRYADLLAKENGKYTVDVADKGYTLNIKFAGKEKTPEE
As to B20, the Kd in assay [5] came out at 12 nM; in assay [1], 11 nM; in assay [6], 45 nM; in assay [2], 46 nM.

B21: pAM132 (B3 domain of Protein L; pos 10 Y, pos 45 N, pos 60 N) (designed binder)
chain: PKEEVTIKAYLIYADGKTQTAEFKGTFEEATAEAYRYADLLAKENGKYTVDVADKGYTLNIKFAGKEKTPEE
Turning to B21, the equilibrium dissociation constant (Kd) in assay [5] was determined as 15 nM; in assay [6], 50 nM.

B22: pAM120 (B3 domain of Protein L; pos 10 N, pos 45 A, pos 60 Y) (designed binder)
chain: PKEEVTIKANLIYADGKTQTAEFKGTFEEATAEAYRYADLLAKEAGKYTVDVADKGYTLYIKFAGKEKTPEE
Take B22: the Kd in assay [5] was 19 nM; in assay [6], 69 nM.

B23: pAM237 (Protein L B2 domain; N10H, N45H, N60Q) (designed binder)
chain: PKEEVTIKAHLIYADGKTQTAEFKGTFEEAAAEAYRYADALKKDHGEYTVDVADKGYTLQIKFAGKEKTPEE
Turning to B23, the results for the equilibrium dissociation constant (Kd) in assay [1] and in assay [2] were 27 nM and 72 nM, respectively.

B24: pAM122 (B3 domain of Protein L; pos 10 N, pos 45 H, pos 60 Y) (designed binder)
chain: PKEEVTIKANLIYADGKTQTAEFKGTFEEATAEAYRYADLLAKEHGKYTVDVADKGYTLYIKFAGKEKTPEE
Turning to B24, the values for the Kd in assay [5] and in assay [6] were 25 nM and 89 nM, respectively.

B25: pAM118 (B3 domain of Protein L; pos 10 N, pos 45 N, pos 60 Y) (designed binder)
chain: PKEEVTIKANLIYADGKTQTAEFKGTFEEATAEAYRYADLLAKENGKYTVDVADKGYTLYIKFAGKEKTPEE
With B25, the Kd in assay [5] worked out at 20 nM; in assay [6], 68 nM.

B26: pAM238 (Protein L B3 domain; N10H, N45H, N60Q) (designed binder)
chain: PKEEVTIKAHLIYADGKTQTAEFKGTFEEATAEAYRYADLLAKEHGKYTVDVADKGYTLQIKFAGKEKTPEE
Turning to B26, the Kd in assay [1] worked out at 25 nM; in assay [2], 82 nM.

B27: pAM136 (B3 domain of Protein L; pos 10 Y, pos 45 N, pos 60 Y) (designed binder)
chain: PKEEVTIKAYLIYADGKTQTAEFKGTFEEATAEAYRYADLLAKENGKYTVDVADKGYTLYIKFAGKEKTPEE
As to B27, the Kd in assay [5] was found to be 19 nM; in assay [6] it was 77 nM.

B28: pAM121 (B3 domain of Protein L; pos 10 N, pos 45 H, pos 60 Q) (designed binder)
chain: PKEEVTIKANLIYADGKTQTAEFKGTFEEATAEAYRYADLLAKEHGKYTVDVADKGYTLQIKFAGKEKTPEE
On to B28, for which the Kd amounted to 22 nM in assay [5] and 76 nM in assay [6].

B29: pAM138 (B3 domain of Protein L; pos 10 Y, pos 45 A, pos 60 Y) (designed binder)
chain: PKEEVTIKAYLIYADGKTQTAEFKGTFEEATAEAYRYADLLAKEAGKYTVDVADKGYTLYIKFAGKEKTPEE
As for B29, the values for the equilibrium dissociation constant (Kd) in assay [5] and in assay [6] were 18 nM and 73 nM, respectively.

B30: pAM139 (B3 domain of Protein L; pos 10 Y, pos 45 H, pos 60 Q) (designed binder)
chain: PKEEVTIKAYLIYADGKTQTAEFKGTFEEATAEAYRYADLLAKEHGKYTVDVADKGYTLQIKFAGKEKTPEE
On to B30, for which the dissociation constant (Kd) in assay [5] was found to be 22 nM; in assay [6], 71 nM.

B31: pAM251 (Protein L B2 domain; N10H, N45H, N60Y) (designed binder)
chain: PKEEVTIKAHLIYADGKTQTAEFKGTFEEAAAEAYRYADALKKDHGEYTVDVADKGYTLYIKFAGKEKTPEE
Regarding B31, the Kd turned out to be 20 nM in assay [1] and 55 nM in assay [2].

B32: pAM252 (Protein L B3 domain; N10H, N45H, N60Y) (designed binder)
chain: PKEEVTIKAHLIYADGKTQTAEFKGTFEEATAEAYRYADLLAKEHGKYTVDVADKGYTLYIKFAGKEKTPEE
For B32, the dissociation constant Kd in assay [1] worked out at 16 nM; in assay [2], 69 nM.

B33: pAM125 (B3 domain of Protein L; pos 10 Q, pos 45 H, pos 60 N) (designed binder)
chain: PKEEVTIKAQLIYADGKTQTAEFKGTFEEATAEAYRYADLLAKEHGKYTVDVADKGYTLNIKFAGKEKTPEE
With B33, the equilibrium dissociation constant (Kd) in assay [5] came out at 15 nM; in assay [6], 50 nM.

B34: pAM140 (B3 domain of Protein L; pos 10 Y, pos 45 H, pos 60 Y) (designed binder)
chain: PKEEVTIKAYLIYADGKTQTAEFKGTFEEATAEAYRYADLLAKEHGKYTVDVADKGYTLYIKFAGKEKTPEE
For the molecule B34, the dissociation constant Kd in assay [5] is 27 nM; in assay [6], 96 nM.

B35: pAM131 (B3 domain of Protein L; pos 10 Q, pos 45 H, pos 60 Y) (designed binder)
chain: PKEEVTIKAQLIYADGKTQTAEFKGTFEEATAEAYRYADLLAKEHGKYTVDVADKGYTLYIKFAGKEKTPEE
On to B35, for which the Kd in assay [5] was 21 nM; in assay [6] it was 81 nM.
